System: Escherichia coli TOP10
Assay: shrunken log2 fold change of peptide-encoding DNA abundance (4.5 h post-induction vs induction); higher = less antimicrobial activity (less host growth inhibition)
Conditions: time post-induction: 4.5 h; library: site-saturation at positions 5, 18, 19, 20
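Also: peptides expressed intracellularly from a pBAD plasmid library in pooled LB shake-flask culture, induced with 0.3% L-arabinose, DNA abundance read by NGS, three biological replicates, DESeq2 with apeglm shrinkage.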

Row | Sequence | shrunken log2 fold change
1 | RRIRWRPPRLPRPRPRPIKFPRP | -0.285
2 | RRIRIRPPRLPRPRPRPPTKPRP | 0.126
3 | RRIRCRPPRLPRPRPRPRECPRP | -0.146
4 | RRIRIRPPRLPRPRPRPDDVPRP | -0.00433
5 | RRIRCRPPRLPRPRPRPQFHPRP | -0.635
6 | RRIRNRPPRLPRPRPRPPGWPRP | 1.24
7 | RRIRRRPPRLPRPRPRPRMDPRP | 2.27
8 | RRIRQRPPRLPRPRPRPWMTPRP | -0.00186
9 | RRIRCRPPRLPRPRPRPDHSPRP | -0.184
10 | RRIRRRPPRLPRPRPRPEHMPRP | 0.14
11 | RRIRCRPPRLPRPRPRPHMSPRP | -0.193
12 | RRIRDRPPRLPRPRPRPHWIPRP | -0.693
13 | RRIRQRPPRLPRPRPRPLTAPRP | 0.0683
14 | RRIRPRPPRLPRPRPRPQTVPRP | 0.184
15 | RRIRPRPPRLPRPRPRPVCKPRP | 0.0717
16 | RRIRVRPPRLPRPRPRPNNHPRP | -0.454
17 | RRIRDRPPRLPRPRPRPFWPPRP | 0.227
18 | RRIRDRPPRLPRPRPRPQQTPRP | -0.252
19 | RRIRSRPPRLPRPRPRPTGTPRP | -0.0039
20 | RRIRTRPPRLPRPRPRPLRAPRP | 1.05
21 | RRIRHRPPRLPRPRPRPMIFPRP | -0.251
22 | RRIRRRPPRLPRPRPRPSGMPRP | -0.0586
23 | RRIRQRPPRLPRPRPRPHFSPRP | -0.508
24 | RRIRTRPPRLPRPRPRPLYEPRP | -0.774
25 | RRIRDRPPRLPRPRPRPNATPRP | 0.0821

Row | Sequence | shrunken log2 fold change
26 | RRIRIRPPRLPRPRPRPNMQPRP | -0.29
27 | RRIRARPPRLPRPRPRPDCWPRP | 1.21
28 | RRIRDRPPRLPRPRPRPDNAPRP | -0.0954
29 | RRIRFRPPRLPRPRPRPAYAPRP | 0.113
30 | RRIRDRPPRLPRPRPRPQRYPRP | -0.0811
31 | RRIRRRPPRLPRPRPRPSGYPRP | -0.201
32 | RRIRYRPPRLPRPRPRPAFFPRP | -0.405
33 | RRIRSRPPRLPRPRPRPRTAPRP | 0.0119
34 | RRIRPRPPRLPRPRPRPRHTPRP | 0.136
35 | RRIRQRPPRLPRPRPRPANGPRP | 0.184
36 | RRIRVRPPRLPRPRPRPEYCPRP | -0.154
37 | RRIRHRPPRLPRPRPRPIIRPRP | -0.507
38 | RRIRWRPPRLPRPRPRPHKYPRP | -0.652
39 | RRIRPRPPRLPRPRPRPKRMPRP | 0.139
40 | RRIRQRPPRLPRPRPRPRVLPRP | -0.0985
41 | RRIRIRPPRLPRPRPRPLATPRP | -0.0671
42 | RRIRFRPPRLPRPRPRPHAMPRP | 0.203
43 | RRIRKRPPRLPRPRPRPEELPRP | 2.77
44 | RRIRARPPRLPRPRPRPWTIPRP | -0.0653
45 | RRIRKRPPRLPRPRPRPNLIPRP | -0.494
46 | RRIRTRPPRLPRPRPRPSTYPRP | -0.4
47 | RRIRWRPPRLPRPRPRPTSLPRP | 0.0239
48 | RRIRFRPPRLPRPRPRPDQQPRP | -0.078
49 | RRIRPRPPRLPRPRPRPPTLPRP | 0.129
50 | RRIRFRPPRLPRPRPRPPVQPRP | 0.3

Row | Sequence | shrunken log2 fold change
51 | RRIRPRPPRLPRPRPRPGEVPRP | 0.605
52 | RRIRGRPPRLPRPRPRPELEPRP | 2.14
53 | RRIRNRPPRLPRPRPRPEYQPRP | 0.00318
54 | RRIRRRPPRLPRPRPRPGEKPRP | 0.0687
55 | RRIRERPPRLPRPRPRPYLKPRP | 0.0189
56 | RRIRKRPPRLPRPRPRPSTFPRP | -0.00863
57 | RRIRGRPPRLPRPRPRPIVNPRP | 0.187
58 | RRIRVRPPRLPRPRPRPKMLPRP | -0.13
59 | RRIRPRPPRLPRPRPRPWYYPRP | -0.102
60 | RRIRKRPPRLPRPRPRPECMPRP | 1.58
61 | RRIRDRPPRLPRPRPRPLHWPRP | -0.124
62 | RRIRERPPRLPRPRPRPSRRPRP | -0.432
63 | RRIRQRPPRLPRPRPRPTRWPRP | 0.561
64 | RRIRERPPRLPRPRPRPMPKPRP | 0.153
65 | RRIRMRPPRLPRPRPRPAHTPRP | 0.709
66 | RRIRARPPRLPRPRPRPTLDPRP | 0.777
67 | RRIRDRPPRLPRPRPRPQKLPRP | -0.307
68 | RRIRIRPPRLPRPRPRPSNIPRP | -0.207
69 | RRIRYRPPRLPRPRPRPTANPRP | -0.602
70 | RRIRCRPPRLPRPRPRPWTEPRP | -0.755
71 | RRIRLRPPRLPRPRPRPGSTPRP | -0.381
72 | RRIRMRPPRLPRPRPRPCWDPRP | 0.439
73 | RRIRYRPPRLPRPRPRPVHWPRP | 0.0233
74 | RRIRRRPPRLPRPRPRPPLTPRP | 0.841
75 | RRIRLRPPRLPRPRPRPRRHPRP | 0.214
